The target in test [1] is S500D-eEF-2K, phosphorylated at T348 (S500D-eEF-2K^p) (UniProt O00418).
Test [2] addresses eukaryotic elongation factor-2 kinase, wild type, phosphorylated at T348 (eEF-2K^p) (UniProt O00418).

On to “calmodulin (CaM) (from UniProt P0DP23 1-149) (natural protein)”, for which the Ca^2+/CaM-dependent kinase activity kobs (2 μM CaM, 450 μM PepS peptide substrate) came to 33 s⁻¹ in test [1] and 40 s⁻¹ in test [2].

For the origin of these results see paper PMC12834908.
